Source: US8715970B2, “Enzymatically catalyzed method of preparing mono-acylated polyols” (BASF SE, priority 2009, dated 2014)
Changes are numbered by the printed parent chain. Names may count otherwise.

B1: WT: non-mutated Candida antarctica lipase B (CALB), SEQ ID NO: 2, immobilized on carrier beads (protein, listed as Candida antarctica)
chain: LPSGSDPAFSQPKSVLDAGLTCQGASPSSVSKPILLVPGTGTTGPQSFDSNWIPLSAQLGYTPCWISPPPFMLNDTQVNTEYMVNAITTLYAGSGNNKLPVLTWSQGGLVAQWGLTFFPSIRSKVDRLMAFAPDYKGTVLAGPLDALAVSAPSVWQQTTGSALTTALRNAGGLTQIVPTTNLYSATDEIVQPQVSNSPLDSSYLFNGKNVQAQAVCGPLFVIDHAGSLTSQFSYVVGRSALRSTTGQARSADYGITDCNPLPANDLTPEQKVAAAALLAPAAAAIVAGPKQNCEPDLMPYARPFAVGKRTCSGIVTP
modifications: immobilized on carrier beads
B2: T40A: CALB mutant with single mutation Thr40Ala (SEQ ID NO: 4) (protein)
chain: B1 chain with T40X
modifications: T40 Mutant

Tests used:
Format in all cases: biochemical
[1] = Enzyme selectivities and specificities towards 1,4-butanediol with vinyl acetate or vinyl butyrate in MTBE (Example 7)
Description: (§1) Reactions using the CALB mutants as described in Example 5 and Example 6 were run with two different straight chain primary diols: 1,2-ethanediol, ≧99.5% from MERCK and 1,4-butanediol, ≧99% from Aldrich. Two different acyl donors were used: vinyl acetate, ≧99% from Fluka and vinyl butyrate, >99% from Fluka. Decane, ≧99% from Fluka, was used as internal standard. MTBE, 99.5% from Lab-Scan was used as solvent.
(§2) Each diol was dissolved to a concentration of 100 mM together with 1 M of the acyl donor and 20 mM decane in MTBE. Reactions were started by adding 3 ml reaction solution to a specific amount of enzyme carrier beads. Different amounts of enzyme carrier beads were used for the different reactions. For reactions with 1,2-ethanediol and vinyl acetate, 19.7 mg wild type, 22.5 mg A282L, 50.5 mg A281V, and 45.5 A281E CALB were used. […]
(§3) All reactions were analyzed on GC, Hewlett Packard 5890 series II. Two different 25 m×0.32 mm WCOT fused silica columns were used, depending on the different substrates and products that were analyzed. […] The response factor for each diol was determined in relationship to decane. When all diol and mono-ester had converted to di-ester, the response factor for the di-ester could be determined in relationship to decane. The concentration of mono-ester in each reaction was determined by subtracting the concentration of di-ester from the starting concentration of diol.

[2] = Enzyme-catalyzed acylation of 1,4-butanediol with ethyl acetate as acyl donor (Example 2); settings: for Conversion at 3:1 (monoester:diester) / Conversion at 9:1 (monoester:diester) / Maximum monoester yield: 1,4-butanediol 20 mM in ethyl acetate; for Maximum monoester yield: 29° C.
Description: Each diol was dissolved to a concentration of 20 mM together with 5 mM of 3-hexanone in ethyl acetate, ≧99% from Fluka, which was used as acyl donor and solvent. Reactions were started by adding 4 ml reaction solution to 20 mg enzyme carrier beads loaded with either wild-type or T40A mutated CALB. Reactions were run at 29° C. on a HLC rotating thermo block. Aliquots of 50 μl were taken, filtered through wool in a Pasteur pipette and diluted with 50 μl ethyl acetate prior to analysis. The 3-hexanon used as internal standard were present in the reaction solution throughout both reaction and analysis.
5 mM 3-hexanone was used as internal standard in the reaction mixtures together with 20 mM diol. Aliquots were taken during the reaction by taking 50 μl of reaction sample. The samples were filtered though wool together with 50 μl ethyl acetate, thereby any remaining enzyme were removed and the reaction samples were diluted by a factor of 2 prior to analysis.
The reactions catalyzed by the T40A-mutant were rerun with 100 mg enzyme carrier beads for determination of maximum monoester yield. The reactions with 2-methyl-1,3-propanediol and 2-phenyl-1,3-propanediol were rerun at 100 mM concentration of diol and 50 mg enzyme carrier beads, both with CALB wild type and CALB T40A-mutant. This was done in order to determine the enantiomeric excess.
All reactions were analyzed on GC, Hewlett Packard 5890 series II. Two different 25 m×0.32 mm WCOT fused silica columns were used, depending on the different substrates and products that were analyzed. A polar GC-column with CP Chirasil-Dex CB coating was used for the reactions with 1,2-ethanediol and 1,3-propanediol. A non-polar GC-column with CP-SIL 5CB coating was used for the reactions with 1,4-butanediol, 2-methyl-1,3-propanediol and 2-phenyl-1,3-propanediol.
The response factor for each diol was determined in relationship to 3-hexanone. When all diol and mono-ester had converted to di-ester, the response factor for the di-ester could be determined in relationship to […]. The concentration of mono-ester in each reaction was determined by subtracting the concentration of di-ester from the starting concentration of diol.
A great difference in concentration between acyl donor and diol was accomplished in the reactions by using ethyl acetate as solvent and acyldonor and a diol concentration of 20 mM. Therefore the reactions was considered to irreversible, following the reaction scheme:
[formula] A, B and C corresponds to diol, monoester and diester, respectively. k1 and k2 respectively corresponds to the reaction rates of the acylation of diol and monoester.
The reaction rates are dependent on enzyme concentrations and the kcat/KM towards the substrates. By fitting the concentrations measured over time into the equations and using the enzyme concentration determined by active site titration, the following results were obtained.

[3] = Enzyme selectivities and specificities towards 1,2-ethanediol with vinyl acetate or vinyl butyrate in MTBE (Example 7)
Description: as §1, §2, §3

Molecule | Initial reaction rates ([1]; vinyl acetate) | Initial reaction rates ([1]; vinyl butyrate) | Conversion at 3:1 (monoester:diester) [2] | Conversion at 9:1 (monoester:diester) [2] | Maximum monoester yield [2] | Selectivity diol/monoester ([2]; 1,4-butanediol, ethyl acetate, listed as wild type) | Selectivity diol/monoester ([2]; 1,4-butanediol, ethyl acetate, listed as wild type CALB) | Initial reaction rates ([3]; vinyl acetate) | Initial reaction rates ([3]; vinyl butyrate) | Selectivity diol/monoester ([2]; 1,4-butanediol, ethyl acetate) | Selectivity ratio diol/monoester T40A/WT ([2]; 1,4-butanediol, ethyl acetate) | Selectivity diol/monoester ([2]; 1,4-butanediol, ethyl acetate, listed as T40A CALB)
B1 | 0.12 mol/g/min | 0.24 mol/g/min | <5% | <5% | 25% | 0.63 | 0.6 | 0.21 mol/g/min | 0.36 mol/g/min | – | – | –
B2 | – | – | 64% | 26% | 49% | – | – | – | – | 1.8 | 2.9 | 1.9
